# B1: human UVRAG, specific subunit of complex II (natural protein, UniProt Q9P2Y5 1-699, looked up)
# chain: MSASASVGGPVPQPPPGPAAALPPGSAARALHVELPSQQRRLRHLRNIAARNIVNRNGHQLLDTYFTLHLCSTEKIYKEFYRSEVIKNSLNPTWRSLDFGIMPDRLDTSVSCFVVKIWGGKENIYQLLIEWKVCLDGLKYLGQQIHARNQNEIIFGLNDGYYGAPFEHKGYSNAQKTILLQVDQNCVRNSYDVFSLLRLHRAQCAIKQTQVTVQKIGKEIEEKLRLTSTSNELKKKSECLQLKILVLQNELERQKKALGREVALLHKQQIALQDKGSAFSAEHLKLQLQKESLNELRKECTAKRELFLKTNAQLTIRCRQLLSELSYIYPIDLNEHKDYFVCGVKLPNSEDFQAKDDGSIAVALGYTAHLVSMISFFLQVPLRYPIIHKGSRSTIKDNINDKLTEKEREFPLYPKGGEKLQFDYGVYLLNKNIAQLRYQHGLGTPDLRQTLPNLKNFMEHGLMVRCDRHHTSSAIPVPKRQSSIFGGADVGFSGGIPSPDKGHRKRASSENERLQYKTPPPSYNSALAQPVTTVPSMGETERKITSLSSSLDTSLDFSKENKKKGEDLVGSLNGGHANVHPSQEQGEALSGHRATVNGTLLPSEQAGSASVQLPGEFHPVSEAELCCTVEQAEEIIGLEATGFASGDQLEAFNCIPVDSAVAVECDEQVLGEFEEFSRRIYALNENVSSFRRPRRSSDK
# notes: UVRAG, human; see Supplementary file 6; also called HsUVRAG; not shown: ZZ (only in pYO1018 and pYO1023)
# Target: T1, human VPS15, subunit of complexes I and II (human, UniProt Q99570 1-1358)
# T1 construct: VPS15, human; expressed as HsVPS15-3xTEV-ZZ from the plasmid HsVPS34 + HsVPS15-3xTEV-ZZ; A 3xTEV site lies between VPS15 and ZZ; whether the tag was cut off is told only in Ohashi et al., 2016; The printed theoretical masses fit tag-free whole chains (my reckoning); also called HsVPS15; source: Expi293 cells, transfected, co-expressed with the other subunits, purified as a complex (method of …)
# T1 sequence (Q99570 whole entry, one chain of several): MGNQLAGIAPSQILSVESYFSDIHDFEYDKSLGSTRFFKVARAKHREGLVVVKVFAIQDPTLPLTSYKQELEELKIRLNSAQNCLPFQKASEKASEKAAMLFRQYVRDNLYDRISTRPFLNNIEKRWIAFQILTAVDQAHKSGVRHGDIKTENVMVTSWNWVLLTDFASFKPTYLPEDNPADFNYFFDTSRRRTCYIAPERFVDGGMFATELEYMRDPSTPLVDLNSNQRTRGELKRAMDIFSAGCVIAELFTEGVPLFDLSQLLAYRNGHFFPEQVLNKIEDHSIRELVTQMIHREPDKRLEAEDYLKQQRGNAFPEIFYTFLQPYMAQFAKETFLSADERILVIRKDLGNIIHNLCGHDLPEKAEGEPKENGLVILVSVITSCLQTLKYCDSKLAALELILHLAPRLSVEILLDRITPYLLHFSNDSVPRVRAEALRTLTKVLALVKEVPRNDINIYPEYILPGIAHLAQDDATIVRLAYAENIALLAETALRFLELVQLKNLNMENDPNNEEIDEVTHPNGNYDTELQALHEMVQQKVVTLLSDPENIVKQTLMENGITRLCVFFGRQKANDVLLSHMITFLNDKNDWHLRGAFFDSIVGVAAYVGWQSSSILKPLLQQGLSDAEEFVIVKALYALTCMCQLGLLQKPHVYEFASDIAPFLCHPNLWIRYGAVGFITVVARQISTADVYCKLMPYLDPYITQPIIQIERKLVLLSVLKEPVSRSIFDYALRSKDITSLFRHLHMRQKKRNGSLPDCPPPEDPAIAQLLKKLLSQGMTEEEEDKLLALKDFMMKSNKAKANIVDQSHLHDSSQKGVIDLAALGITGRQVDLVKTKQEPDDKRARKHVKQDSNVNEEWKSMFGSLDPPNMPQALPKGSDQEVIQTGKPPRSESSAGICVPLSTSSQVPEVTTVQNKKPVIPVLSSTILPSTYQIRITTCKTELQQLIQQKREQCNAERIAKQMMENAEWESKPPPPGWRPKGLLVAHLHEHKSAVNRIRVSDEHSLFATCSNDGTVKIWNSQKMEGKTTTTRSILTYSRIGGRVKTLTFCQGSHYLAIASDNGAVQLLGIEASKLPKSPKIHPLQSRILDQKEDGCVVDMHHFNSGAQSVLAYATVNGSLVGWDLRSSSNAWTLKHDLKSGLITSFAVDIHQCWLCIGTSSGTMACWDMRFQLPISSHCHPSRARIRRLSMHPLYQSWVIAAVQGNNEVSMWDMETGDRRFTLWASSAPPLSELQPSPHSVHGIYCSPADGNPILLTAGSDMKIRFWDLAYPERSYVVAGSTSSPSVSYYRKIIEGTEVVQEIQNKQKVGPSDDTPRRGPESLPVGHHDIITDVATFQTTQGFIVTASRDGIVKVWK
# Assay: SEC-MALS; purified, co-expressed human complex II at 0.8 mg/mL; Superose 6 10/300, 0.5 mL/min; measured 384 kDa against 386 kDa theoretical
# Details: both partners purified
binder,measurement,value
B1,stoichiometry N,1
